Test results reported in publication PMC10484735.

Experiments:
[1] = system: gp32 (WT) (bacteriophage T4); assay: optical tweezers (koff/kon); conditions: 15 pN tension; kon 0.003 nM-1 s-1; cooperative binding to bare ssDNA; Optical tweezers buffer, pH and temperature not in the material (lower salt than AFM; 15 pN for Kd); AFM: 150 mM Na+, 100 uM spermidine, 37 C, 5 min
[2] = system: *II (gp32 N-terminal truncate) (bacteriophage T4); assay: optical tweezers (koff/kon); conditions: 15 pN tension; kon 0.0024 nM-1 s-1, koff 0.11 s-1; Optical tweezers buffer, pH and temperature not in the material (lower salt than AFM; 15 pN for Kd); AFM: 150 mM Na+, 100 uM spermidine, 37 C, 5 min
[3] = molecular target: Bacteriophage T4 gene 32 protein (gp32), full-length (bacteriophage T4) (UniProt P03695)
[4] = molecular target: Bacteriophage T4 gene 32 protein (gp32), full-length (bacteriophage T4) (UniProt P03695); remark: listed apart in the source
[5] = molecular target: Bacteriophage T4 gene 32 protein (gp32), full-length (bacteriophage T4) (UniProt P03695); remark: listed apart in the source

Molecule 8.1 knt ssDNA (optical tweezers) has a Kd [1] of 1 nM and a Kd [2] of 46 nM.

B1: Bacteriophage T4 gene 32 protein (gp32), full-length (natural protein)
chain: MFKRKSTAELAAQMAKLNGNKGFSSEDKGEWKLKLDNAGNGQAVIRFLPSKNDEQAPFAILVNHGFKKNGKWYIETCSSTHGDYDSCPVCQYISKNDLYNTDNKEYSLVKRKTSYWANILVVKDPAAPENEGKVFKYRFGKKIWDKINAMIAVDVEMGETPVDVTCPWEGANFVLKVKQVSGFSNYDESKFLNQSAIPNIDDESFQKELFEQMVDLSEMTSKDKFKSFEELNTKFGQVMGTAVMGGAAATAAKKADKVADDLDAFNVDDFNTKTEDDFMSSSSGSSSSADDTDLDDLLNDL
Work on B1 yielded a rate of ssDNA compaction after bimolecular binding (kc, two-step fit of k+1 against gp32 concentration at 15 pN, optical tweezers) [3] of 1.5 s^−1, a persistence length of the gp32–ssDNA complex (WLC fit of force-extension curves up to 5 pN, optical tweezers; plateau at gp32 ≥25 nM, up to 1 μM) [4] of 20 nm and a maximal compaction of 8.1 knt ssDNA at 15 pN (optical tweezers, constant force), WT gp32 against the noncooperative truncate *II that lacks the N-terminal domain [5] of 4 fold.
